Where “and” joins values, the source holds several entries; their conditions need not be identical. Equal values may be shown once.

This note sets out measurements from doi:10.1101/2020.06.18.159665 (bioRxiv, 2020).

The target in test [1] is 6X-HisGSK3β purchased from Signalchem (G09-10H-05) (human, UniProt P49841 1-420). The test is described as follows: MST.
The target of test [2] is N- and C-terminal double His-tagged GSK3β (His-GSK3β-His) (human, UniProt P49841 1-420). In words: SPR.
Test [3] addresses biotinylated 6X-His-GSK3β (human, UniProt P49841 1-420, biotin (site not stated)). The test is described as follows: BLI. Background: BLI is a label-free optical method that tracks binding on a fibre tip over time.

Chain of N- and C-terminal double His-tagged GSK3β (His-GSK3β-His) (P49841 whole entry): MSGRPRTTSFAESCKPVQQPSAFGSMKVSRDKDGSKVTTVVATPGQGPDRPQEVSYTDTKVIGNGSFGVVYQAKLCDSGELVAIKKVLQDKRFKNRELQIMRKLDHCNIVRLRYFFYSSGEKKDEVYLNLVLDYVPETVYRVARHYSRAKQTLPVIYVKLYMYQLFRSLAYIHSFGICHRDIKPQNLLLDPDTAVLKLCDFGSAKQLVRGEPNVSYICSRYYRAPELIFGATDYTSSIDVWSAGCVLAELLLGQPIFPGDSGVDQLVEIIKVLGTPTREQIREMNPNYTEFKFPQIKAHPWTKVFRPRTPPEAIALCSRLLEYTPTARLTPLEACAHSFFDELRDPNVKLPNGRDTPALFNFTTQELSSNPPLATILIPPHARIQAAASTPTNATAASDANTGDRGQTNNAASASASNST
Chain of biotinylated 6X-His-GSK3β (P49841 whole entry): as above
Chain of 6X-HisGSK3β purchased from Signalchem (G09-10H-05) (P49841 whole entry): as above

As usually defined, the Kd is a measure of binding affinity in units of concentration. A higher Kd goes with weaker binding. As usually defined, the koff is a measure of how fast the partners let go of each other. Lower therefore signals slow dissociation. In general, kon refers to the rate constant with which the complex forms. Higher therefore signals faster complex formation. In the case of PEVPPTPPGSHSAFTSSFSFIRLSLGSAGERGEAEGCPPSREAE (peptide, UniProt Q9NRI5 193-236, looked up) [hDISCtide, 44-mer peptide derived from human DISC1 (residues 193-236)], the Kd in test [1] turned out to be 5.7 µM. For the same molecule, in test [2], the koff worked out at 0.000249 s⁻¹ and the kon worked out at 495 ± 31.4 M⁻¹ s⁻¹.
Turning to DPHRLLQQLVLSGNLIKEAVRRLHS [FRATide], the Kd in test [3] is 3.6 µM and 3.8 µM; in test [2] it was 1.9 µM and 3.2 µM.
In test [3], VEPQKFAEELIHRLEAVQ [AxinGID] showed a Kd of 63.6 µM.
